Test results as given in the supplement of paper PMC10567573.

B1: TBX6 (parent)
chain: AFLELPHGSGGSGYPAAPPAVPFA
B2: RAD51 (parent)
chain: RFLRMLLRLADEFGVAVVITNQVV

Variants of: B1
Assay: protein stability index of a GFP-peptide fusion (GPS, HEK-293T) (PSI 1-6); higher = more stable
Conditions: c terminus: a fixed tail appended
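Further: lentivirally expressed fusions sorted by FACS into six bins by GFP to DsRed ratio, PSI derived from sequencing read proportions per bin multiplied by bin number.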

Protein stability index: each site, then its substitutions
A16: T 2.63, V 2.19, W 1.94, Y 2.46
A17: C 2.61, D 2.85, E 2.97, F 1.99, G 2.03, I 2.65, K 2.4, L 2.57, M 2.17, N 2.22, Q 2.54, R 2.37, S 2.46, T 2.58, V 2.62, W 2.02, Y 2.36
P18: A 1.94, C 2.4, D 2.61, E 3.32, F 1.96, G 2.39, H 2.23, I 2.29, K 2.4, L 2.44, M 2.56, N 2.19, Q 2.22, R 2.17, S 2.55, T 2.41, V 2.01, W 2.03, Y 2.06
P19: A 2.72, C 2.05, D 2.56, E 2.78, F 1.59, G 2.38, H 2.23, I 2.27, K 2.07, L 2.25, M 2.19, N 2.06, Q 2.47, R 2.17, S 2.13, T 2.37, V 2.13, W 2.83, Y 1.48
A20: C 2.68, D 3.49, E 2.87, F 2.4, G 2.73, H 2.38, I 2.11, K 2.85, L 2.21, M 2.35, N 2.69, Q 2.99, R 2.56, S 2.52, T 2.42, V 1.84, W 2.46, Y 2.03
V21: C 2.09, D 3.46, E 3.02, F 1.97, G 3.31, K 3.23, L 2.58, M 2.36, N 2.64, R 2.64, S 2.59, W 2.07, Y 2.12
P22: A 2.14, C 2.1, D 3.29, E 2.54, F 2.13, G 2.42, H 2.46, I 1.73, K 2.19, L 1.4, M 2.02, N 1.89, Q 2.52, R 2.3, S 2.18, T 1.86, V 2.16, W 2.25, Y 2.02
F23: A 3.48, C 3.36, D 4.19, E 3.56, G 3.72, H 3.05, I 2.52, K 3.38, L 2.35, M 2.62, N 3.76, Q 3.7, R 3.3, S 3.21, T 3, V 2.89, W 2.18, Y 2.42
A24: C 1.53, D 3.33, E 3.4, F 1.54, G 2.56, H 1.92, I 2.23, K 2.55, L 1.6, M 2.19, N 2.68, Q 2.71, R 2.54, S 2.63, T 2.55, V 2.47, W 1.67, Y 1.89

Variants of: B2
Assay: as above
Conditions: c terminus: a fixed tail appended

Protein stability index of substitutions, site by site:
R1: A 1.62, C 2.23, D 2, E 2.06, F 1.92, G 2.51, H 1.78, I 2.9, K 2.54, L 2.12, M 2.43, N 2.71, P 2.08, Q 1.79, S 2.27, T 1.37, V 1.52, W 3, Y 2.8
F2: A 1.89, C 1.75, D 2.27, E 1.51, G 1.75, H 1.78, I 2.4, K 1.39, L 1.6, M 2.29, N 2.1, P 2.89, Q 2.22, R 1.7, S 1.91, T 3.18, V 1.59, W 1.88, Y 2.21
L3: A 4.15, C 1.78, D 2.04, E 3.2, G 2.62, H 2.75, I 1.35, K 2.6, M 2.19, N 3.69, Q 1.78, R 1.17, S 3.09, T 3.74, V 3.98, W 2.03, Y 2.14
R4: A 2.24, C 2.77, D 1.96, E 1.23, F 2.58, H 2.49, I 2.45, K 2.82, M 1.97, N 3.36, P 2.39, Q 1.92, S 3.21, T 2.42, V 1.91, W 1.77, Y 2.93
M5: A 3.9, C 3.05, D 2.28, E 2.43, F 2.15, H 3.79, I 2.23, K 4.13, L 2.13, N 1.93, Q 2.11, R 1.83, S 2.93, T 3.18, Y 2.57
L6: A 1.91, C 2.78, F 3.14, G 2.56, H 1.55, K 1.96, M 2.02, N 2.75, P 3.81, Q 4.57, R 2.89, S 3.28, T 3.04, V 2.54, W 2.54, Y 3.5
L7: A 1.25, C 2.54, D 1.3, E 2.69, F 2.04, G 3.06, H 2.34, I 2.79, K 1.98, M 1.55, N 1.71, P 2.49, Q 2.34, R 1.49, S 1.6, T 2.6, V 2.15, W 1.94, Y 2.13
R8: A 1.42, C 2.36, D 2.57, F 2.47, G 1.46, H 3.25, I 3.12, K 2.33, L 3.02, M 2.17, N 1.78, Q 2.09, S 2.96, V 2.87, W 1.83
L9: D 2.1, E 1.65, F 1.76, G 3.55, I 2.52, K 1.98, M 1.54, N 2.37, P 3.32, Q 2.88, R 1.7, S 1.76, T 2.51, V 2.38, Y 2.89
A10: C 1.79, D 1.97, E 2.5, F 2.21, H 1.64, I 3.61, K 2.9, L 3.03, M 3.27, N 2.58, P 2.33, Q 1.82, R 1.65, S 1.65, T 3.2, V 1.95, Y 3.62
D11: A 3.02, C 2.06, E 1.97, I 2.43, K 3.43, L 2.46, N 1.66, P 1.85, R 2.85, S 2.32, T 2.51, V 2.46, Y 3.81
E12: A 2.02, C 3.13, D 2.48, F 3.25, G 1.3, H 3.24, I 3.64
